Results reported in patent US20110038917A1, “THERAPEUTIC COMPOSITIONS AND METHODS FOR TREATING GRAM-NEGATIVE BACTERIAL INFECTIONS” (RQ Bioscience, Inc., priority 2007, published 2011).

Details: human, in vivo
Experimental: The patient dissolved varying amounts of grape seed powder containing 20% (w/w) of oligomeric proanthocyanidin (OPC) in 37% alcohol/water to produce solutions having OPC concentrations of 1,000 mg/ml, 2,000 mg/ml and 4,000 mg/ml. Each of the solutions were filtered the resulting filtrate then diluted 1:1 with water to produce solutions having final concentrations of 500 mg OPC/l, 1,000 mg OPC/l and 2,000 mg OPC/l. They loaded 3 ml of the 500 mg OPC/l solution into an inhaler and self-administered the solution to their lungs two to three times/day for a few days. […] They performed the same experiment with each of the higher concentration OPC solutions. […] The patient then prepared a solution of bovine apolactoferrin. The lactoferrin was manufactured by Life Extension as a solid in a capsule. The patient broke open capsules and dissolved the lactoferrin therein in 18.5% alcohol/water to final concentrations ranging from 1 g lactoferrin/l to 4.5 g lactoferrin/l. […] The patient reported a relief from all signs of their infection, including coughing, for 4 to 5 hours following administration of the lactoferrin. After that time, their condition began to return to the pre-treatment state. […] It is theorized that this may have been due to a build-up in the patient's lungs of contaminants present in the OPC/lactoferrin preparation that could not be removed by filtration prior to administration. […]

B1: lactoferrin: bovine apolactoferrin manufactured by Life Extension as a solid in a capsule, dissolved in 18.5% alcohol/water (protein, UniProt P24627 20-708, looked up)
Lactotransferrin: APRKNVRWCTISQPEWFKCRRWQWRMKKLGAPSITCVRRAFALECIRAIAEKKADAVTLDGGMVFEAGRDPYKLRPVAAEIYGTKESPQTHYYAVAVVKKGSNFQLDQLQGRKSCHTGLGRSAGWIIPMGILRPYLSWTESLEPLQGAVAKFFSASCVPCIDRQAYPNLCQLCKGEGENQCACSSREPYFGYSGAFKCLQDGAGDVAFVKETTVFENLPEKADRDQYELLCLNNSRAPVDAFKECHLAQVPSHAVVARSVDGKEDLIWKLLSKAQEKFGKNKSRSFQLFGSPPGQRDLLFKDSALGFLRIPSKVDSALYLGSRYLTTLKNLRETAEEVKARYTRVVWCAVGPEEQKKCQQWSQQSGQNVTCATASTTDDCIVLVLKGEADALNLDGGYIYTAGKCGLVPVLAENRKSSKHSSLDCVLRPTEGYLAVAVVKKANEGLTWNSLKDKKSCHTAVDRTAGWNIPMGLIVNQTGSCAFDEFFSQSCAPGADPKSRLCALCAGDDQGLDKCVPNSKEKYYGYTGAFRCLAEDVGDVAFVKNDTVWENTNGESTADWAKNLNREDFRLLCLDGTRKPVTEAQSCHLAVAPNHAVVSRSDRAAHVKQVLLHQQALFGKNGKNCPDKFCLFKSETKNLLFNDNTECLAKLGGRPTYEEYLGTEYVTAIANLKKCSTSPLLEACAFLTR
modifications: apo form
notes: bovine apolactoferrin manufactured by Life Extension as a solid in a capsule, dissolved in 18.5% alcohol/water
  side effects on inhalation: no immediate deleterious side effects
